Assay [1] concerns the target hGPC3^core(R355A/R358A) (human) (UniProt P51654). The assay can be described thus: native MS.
The target in assay [2] is rattus norvegicus Unc5D residues 32-307 (rUnc5D^IgIgTSP) (rattus norvegicus) (UniProt F1LW30). The assay can be described thus: crystal structure.

In general, stoichiometry N refers to the number of molecules, sites or subunits per partner or assembly.

Sequence of hGPC3^core(R355A/R358A) (human) (P51654 32-483 R355A/R358A): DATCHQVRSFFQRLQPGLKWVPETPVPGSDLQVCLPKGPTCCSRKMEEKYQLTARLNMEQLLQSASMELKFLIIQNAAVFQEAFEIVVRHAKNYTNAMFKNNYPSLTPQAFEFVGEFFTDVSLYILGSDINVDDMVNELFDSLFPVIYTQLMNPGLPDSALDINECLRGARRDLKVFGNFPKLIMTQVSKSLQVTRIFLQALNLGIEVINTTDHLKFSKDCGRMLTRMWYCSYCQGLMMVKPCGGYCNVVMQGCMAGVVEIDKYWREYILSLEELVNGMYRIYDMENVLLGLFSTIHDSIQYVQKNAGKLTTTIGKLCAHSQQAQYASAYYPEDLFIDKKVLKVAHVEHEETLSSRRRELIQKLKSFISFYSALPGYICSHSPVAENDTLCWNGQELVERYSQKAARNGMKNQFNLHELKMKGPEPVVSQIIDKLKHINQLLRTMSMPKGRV

In assay [1], “rattus norvegicus Unc5D residues 32-307 (rUnc5D^IgIgTSP) (from UniProt F1LW30 32-307) (domain or fragment)” showed a stoichiometry N (Unc5D per GPC3 (1:1)) of 1, a stoichiometry N (Unc5D per GPC3 (2:2)) of 1 and a stoichiometry N (Unc5D per GPC3 (4:4)) of 1. For the same substance, the stoichiometry N in assay [2] came to 4.

(Values after doi:10.1101/2022.07.21.500812.)
